Experimental data taken from doi:10.1101/2024.12.23.630085, “Accurate sequence-to-affinity models for SH2 domains from multi-round peptide binding assays coupled with free-energy regression” (bioRxiv, 2025).
Non-standard residues stand in square brackets, D forms with d. *: point of attachment. FITC = O=C1OC2(c3ccc(O)cc3Oc3cc(O)ccc32)c2ccc(NC(=S)*)cc21; pY = N[C@@H](Cc1ccc(OP(=O)(O)O)cc1)C(=O)O; Ahx = NCCCCCC(=O)O

B1: FITC-Ahx-GDG-pY-EEISPLLL-NH2 (peptide)
peptide: {FITC-Ahx}-GDG[pY]EEISPLLL-NH2
SMILES: CC[C@H](C)[C@H](NC(=O)[C@H](CCC(=O)O)NC(=O)[C@H](CCC(=O)O)NC(=O)[C@H](Cc1ccc(OP(=O)(O)O)cc1)NC(=O)CNC(=O)[C@H](CC(=O)O)NC(=O)CNC(=O)CCCCCNC(=S)Nc1ccc2c(c1)C(=O)OC21c2ccc(O)cc2Oc2cc(O)ccc21)C(=O)N[C@@H](CO)C(=O)N1CCC[C@H]1C(=O)N[C@@H](CC(C)C)C(=O)N[C@@H](CC(C)C)C(=O)N[C@@H](CC(C)C)C(N)=O
notes: fluorescent probe, c-Src SH2 consensus peptide; also called c-Src SH2 consensus; source: synthetic peptide (SynPeptide, China)
B2: CBS pY308 (peptide)
peptide: Ac-QVEGIG[pY]DFIPTG-NH2
SMILES: CC[C@H](C)[C@H](NC(=O)CNC(=O)[C@H](CCC(=O)O)NC(=O)[C@@H](NC(=O)[C@H](CCC(N)=O)NC(C)=O)C(C)C)C(=O)NCC(=O)N[C@@H](Cc1ccc(OP(=O)(O)O)cc1)C(=O)N[C@@H](CC(=O)O)C(=O)N[C@@H](Cc1ccccc1)C(=O)N[C@H](C(=O)N1CCC[C@H]1C(=O)N[C@H](C(=O)NCC(N)=O)[C@@H](C)O)[C@@H](C)CC
notes: flank added to the 11-residue stretch (surmised: last residue of the library's constant GQSGQ); CBS, human, around pY308; flank added to the 11-residue stretch (surmised: first residue of the library's constant GGQSG); source: synthetic peptide (SynPeptide, China)
B3: CBS pY308 G307S (peptide)
peptide: Ac-QVEGIS[pY]DFIPTG-NH2
SMILES: CC[C@H](C)[C@H](NC(=O)CNC(=O)[C@H](CCC(=O)O)NC(=O)[C@@H](NC(=O)[C@H](CCC(N)=O)NC(C)=O)C(C)C)C(=O)N[C@@H](CO)C(=O)N[C@@H](Cc1ccc(OP(=O)(O)O)cc1)C(=O)N[C@@H](CC(=O)O)C(=O)N[C@@H](Cc1ccccc1)C(=O)N[C@H](C(=O)N1CCC[C@H]1C(=O)N[C@H](C(=O)NCC(N)=O)[C@@H](C)O)[C@@H](C)CC
notes: flank added to the 11-residue stretch (surmised: last residue of the library's constant GQSGQ); CBS, human, around pY308, natural variant G307S; flank added to the 11-residue stretch (surmised: first residue of the library's constant GGQSG); source: synthetic peptide (SynPeptide, China)
B4: SLAP-130 pY771 (peptide)
peptide: Ac-QNDGEI[pY]DDIADG-NH2
notes: flank added to the 11-residue stretch (surmised: last residue of the library's constant GQSGQ); SLAP-130, human, around pY771; flank added to the 11-residue stretch (surmised: first residue of the library's constant GGQSG); source: synthetic peptide (SynPeptide, China)
B5: ACTA1 pY171 (peptide)
peptide: Ac-QPIFEG[pY]ALPHAG-NH2
SMILES: CC[C@H](C)[C@H](NC(=O)[C@@H]1CCCN1C(=O)[C@H](CCC(N)=O)NC(C)=O)C(=O)N[C@@H](Cc1ccccc1)C(=O)N[C@@H](CCC(=O)O)C(=O)NCC(=O)N[C@@H](Cc1ccc(OP(=O)(O)O)cc1)C(=O)N[C@@H](C)C(=O)N[C@@H](CC(C)C)C(=O)N1CCC[C@H]1C(=O)N[C@@H](Cc1c[nH]cn1)C(=O)N[C@@H](C)C(=O)NCC(N)=O
notes: flank added to the 11-residue stretch (surmised: last residue of the library's constant GQSGQ); ACTA1, human, around pY171; flank added to the 11-residue stretch (surmised: first residue of the library's constant GGQSG); also called ACTA1 pTyr Y171; source: synthetic peptide (SynPeptide, China)
B6: PTPN6 pY564 (peptide)
peptide: Ac-QHKEDV[pY]ENLHTG-NH2
notes: flank added to the 11-residue stretch (surmised: last residue of the library's constant GQSGQ); PTPN6 (SHP1), human, around pY564; flank added to the 11-residue stretch (surmised: first residue of the library's constant GGQSG); also called SHP1 pY564; source: synthetic peptide (SynPeptide, China)
B7: CLIP2 pY972 (peptide)
peptide: Ac-QSDQRR[pY]SLIDRG-NH2
SMILES: CC[C@H](C)[C@H](NC(=O)[C@H](CC(C)C)NC(=O)[C@H](CO)NC(=O)[C@H](Cc1ccc(OP(=O)(O)O)cc1)NC(=O)[C@H](CCCNC(=N)N)NC(=O)[C@H](CCCNC(=N)N)NC(=O)[C@H](CCC(N)=O)NC(=O)[C@H](CC(=O)O)NC(=O)[C@H](CO)NC(=O)[C@H](CCC(N)=O)NC(C)=O)C(=O)N[C@@H](CC(=O)O)C(=O)N[C@@H](CCCNC(=N)N)C(=O)NCC(N)=O
notes: flank added to the 11-residue stretch (surmised: last residue of the library's constant GQSGQ); CLIP2, human, around pY972; flank added to the 11-residue stretch (surmised: first residue of the library's constant GGQSG); source: synthetic peptide (SynPeptide, China)
B8: CLIP2 pY972 R977P (peptide)
peptide: Ac-QSDQRR[pY]SLIDPG-NH2
SMILES: CC[C@H](C)[C@H](NC(=O)[C@H](CC(C)C)NC(=O)[C@H](CO)NC(=O)[C@H](Cc1ccc(OP(=O)(O)O)cc1)NC(=O)[C@H](CCCNC(=N)N)NC(=O)[C@H](CCCNC(=N)N)NC(=O)[C@H](CCC(N)=O)NC(=O)[C@H](CC(=O)O)NC(=O)[C@H](CO)NC(=O)[C@H](CCC(N)=O)NC(C)=O)C(=O)N[C@@H](CC(=O)O)C(=O)N1CCC[C@H]1C(=O)NCC(N)=O
notes: flank added to the 11-residue stretch (surmised: last residue of the library's constant GQSGQ); CLIP2, human, around pY972, natural variant R977P; flank added to the 11-residue stretch (surmised: first residue of the library's constant GGQSG); source: synthetic peptide (SynPeptide, China)
B9: CD3Z pY83 (peptide)
peptide: Ac-QGRREE[pY]DVLDKG-NH2
SMILES: CC(=O)N[C@@H](CCC(N)=O)C(=O)NCC(=O)N[C@@H](CCCNC(=N)N)C(=O)N[C@@H](CCCNC(=N)N)C(=O)N[C@@H](CCC(=O)O)C(=O)N[C@@H](CCC(=O)O)C(=O)N[C@@H](Cc1ccc(OP(=O)(O)O)cc1)C(=O)N[C@@H](CC(=O)O)C(=O)N[C@H](C(=O)N[C@@H](CC(C)C)C(=O)N[C@@H](CC(=O)O)C(=O)N[C@@H](CCCCN)C(=O)NCC(N)=O)C(C)C
notes: flank added to the 11-residue stretch (surmised: last residue of the library's constant GQSGQ); CD3 zeta chain, human, around pY83; flank added to the 11-residue stretch (surmised: first residue of the library's constant GGQSG); also called CD3ζ pY83; source: synthetic peptide (SynPeptide, China)
B10: ACTB pY240 (peptide)
peptide: Ac-QSLEKS[pY]ELPDGG-NH2
SMILES: CC(=O)N[C@@H](CCC(N)=O)C(=O)N[C@@H](CO)C(=O)N[C@@H](CC(C)C)C(=O)N[C@@H](CCC(=O)O)C(=O)N[C@@H](CCCCN)C(=O)N[C@@H](CO)C(=O)N[C@@H](Cc1ccc(OP(=O)(O)O)cc1)C(=O)N[C@@H](CCC(=O)O)C(=O)N[C@@H](CC(C)C)C(=O)N1CCC[C@H]1C(=O)N[C@@H](CC(=O)O)C(=O)NCC(=O)NCC(N)=O
notes: flank added to the 11-residue stretch (surmised: last residue of the library's constant GQSGQ); ACTB, human, around pY240; flank added to the 11-residue stretch (surmised: first residue of the library's constant GGQSG); source: synthetic peptide (SynPeptide, China)
B11: ACTB pY240 P243L (peptide)
peptide: Ac-QSLEKS[pY]ELLDGG-NH2
SMILES: CC(=O)N[C@@H](CCC(N)=O)C(=O)N[C@@H](CO)C(=O)N[C@@H](CC(C)C)C(=O)N[C@@H](CCC(=O)O)C(=O)N[C@@H](CCCCN)C(=O)N[C@@H](CO)C(=O)N[C@@H](Cc1ccc(OP(=O)(O)O)cc1)C(=O)N[C@@H](CCC(=O)O)C(=O)N[C@@H](CC(C)C)C(=O)N[C@@H](CC(C)C)C(=O)N[C@@H](CC(=O)O)C(=O)NCC(=O)NCC(N)=O
notes: flank added to the 11-residue stretch (surmised: last residue of the library's constant GQSGQ); ACTB, human, around pY240, natural variant P243L; flank added to the 11-residue stretch (surmised: first residue of the library's constant GGQSG); source: synthetic peptide (SynPeptide, China)
B12: CSF1R pY699 (peptide)
peptide: Ac-QEGGVD[pY]KNIHLG-NH2
SMILES: CC[C@H](C)[C@H](NC(=O)[C@H](CC(N)=O)NC(=O)[C@H](CCCCN)NC(=O)[C@H](Cc1ccc(OP(=O)(O)O)cc1)NC(=O)[C@H](CC(=O)O)NC(=O)[C@@H](NC(=O)CNC(=O)CNC(=O)[C@H](CCC(=O)O)NC(=O)[C@H](CCC(N)=O)NC(C)=O)C(C)C)C(=O)N[C@@H](Cc1c[nH]cn1)C(=O)N[C@@H](CC(C)C)C(=O)NCC(N)=O
notes: flank added to the 11-residue stretch (surmised: last residue of the library's constant GQSGQ); CSF1R, human, around pY699; flank added to the 11-residue stretch (surmised: first residue of the library's constant GGQSG); also called CSFR pY699; source: synthetic peptide (SynPeptide, China)
B13: Syn-F-2 (synthetic) (peptide)
peptide: Ac-QMEKHV[pY]ESVTQG-NH2
SMILES: CSCC[C@H](NC(=O)[C@H](CCC(N)=O)NC(C)=O)C(=O)N[C@@H](CCC(=O)O)C(=O)N[C@@H](CCCCN)C(=O)N[C@@H](Cc1c[nH]cn1)C(=O)N[C@H](C(=O)N[C@@H](Cc1ccc(OP(=O)(O)O)cc1)C(=O)N[C@@H](CCC(=O)O)C(=O)N[C@@H](CO)C(=O)N[C@H](C(=O)N[C@H](C(=O)N[C@@H](CCC(N)=O)C(=O)NCC(N)=O)[C@@H](C)O)C(C)C)C(C)C
notes: source: synthetic peptide (SynPeptide, China)
B14: TRAF3IP3 pY322 (peptide)
peptide: Ac-QEWRSQ[pY]EALKEG-NH2
notes: flank added to the 11-residue stretch (surmised: last residue of the library's constant GQSGQ); TRAF3IP3, human, around pY322; flank added to the 11-residue stretch (surmised: first residue of the library's constant GGQSG); source: synthetic peptide (SynPeptide, China)
B15: Syn-F-1 (synthetic) (peptide)
peptide: Ac-QLHVHP[pY]EKVEDG-NH2
SMILES: CC(=O)N[C@@H](CCC(N)=O)C(=O)N[C@@H](CC(C)C)C(=O)N[C@@H](Cc1c[nH]cn1)C(=O)N[C@H](C(=O)N[C@@H](Cc1c[nH]cn1)C(=O)N1CCC[C@H]1C(=O)N[C@@H](Cc1ccc(OP(=O)(O)O)cc1)C(=O)N[C@@H](CCC(=O)O)C(=O)N[C@@H](CCCCN)C(=O)N[C@H](C(=O)N[C@@H](CCC(=O)O)C(=O)N[C@@H](CC(=O)O)C(=O)NCC(N)=O)C(C)C)C(C)C
notes: as for B13
B16: PLCG2 pY 753 (peptide)
peptide: Ac-QDINSL[pY]DVSRMG-NH2
notes: flank added to the 11-residue stretch (surmised: last residue of the library's constant GQSGQ); PLCG2, human, around pY753; flank added to the 11-residue stretch (surmised: first residue of the library's constant GGQSG); also called PLCγ2 pY753; source: synthetic peptide (SynPeptide, China)

Assays:
Details in all cases: both partners purified
Fyn SH2 domain (142-248) = target: T1, Fyn SH2 domain (142-248) (human, UniProt P06241 142-248, biotin (on the AviTag)); assay: fluorescence polarisation; competition mode; unlabelled phosphopeptide against 0.4 nM FITC-Ahx-GDG-pY-EEISPLLL-NH2 and 4.125 nM Fyn SH2, as printed (Tables S3 and S5)
T1 construct: SH2 domain of human Fyn kinase, residues 142-248; source: E. coli C43(DE3) with BirA helper plasmid, purified (HisTrap, anion exchange, Ulp1 cleavage, SEC); not shown: His6-SUMO, N-terminal, cleaved; AviTag, C-terminal, kept

Lyn SH2 domain (121-228) = target: T2, Lyn SH2 domain (121-228) (human, UniProt P07948 121-228, biotin (on the AviTag)); assay: fluorescence polarisation; competition mode; unlabelled phosphopeptide against 30 nM FITC-Ahx-GDG-pY-EEISPLLL-NH2 and 106.5 nM Lyn SH2 (Table S3)
T2 construct: source: E. coli C43(DE3) with BirA helper plasmid, purified (HisTrap, anion exchange, Ulp1 cleavage, SEC); not shown: His6-SUMO, N-terminal, cleaved; AviTag, C-terminal, kept

c-Src SH2 domain = target: T3, c-Src SH2 domain (UniProt P12931-1 151-248, biotin (biotinylated SH2 domain of the selection)); assay: fluorescence polarisation; competition mode; unlabelled phosphopeptide against 30 nM FITC-Ahx-GDG-pY-EEISPLLL-NH2 and 122.745 nM c-Src SH2 (123.745 to 125.745 in three rows; Table S3)
T3 construct: SH2 domain of c-Src kinase; source: purified

T1 sequence (P06241 142-248): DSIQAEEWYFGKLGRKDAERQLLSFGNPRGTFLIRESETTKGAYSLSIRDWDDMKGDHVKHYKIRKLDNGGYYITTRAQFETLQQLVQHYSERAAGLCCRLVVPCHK
T2 sequence (P07948 121-228): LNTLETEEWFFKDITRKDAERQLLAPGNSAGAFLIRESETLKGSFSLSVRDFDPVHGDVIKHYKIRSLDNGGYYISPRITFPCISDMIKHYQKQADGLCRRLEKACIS

Row | Binder | Kd (Fyn SH2 domain (142-248)) | Kd (Lyn SH2 domain (121-228)) | other results
1 | B1 | – | – | binding result (Fyn SH2 domain (142-248)): binds; binding result (Lyn SH2 domain (121-228)): binds
2 | B2 | 126 nM | – | –
3 | B3 | 185 nM | – | –
4 | B4 | – | 96.8 nM | Kd (c-Src SH2 domain): 94 nM
5 | B5 | 47.3 nM | – | –
6 | B6 | – | 943 nM | Kd (c-Src SH2 domain): 909 nM
7 | B7 | 78.5 nM | – | –
8 | B8 | 27 nM | – | –
9 | B9 | – | 2950 nM | –
10 | B10 | 159 nM | – | –
11 | B11 | 141 nM | – | –
12 | B12 | – | 22800 nM | –
13 | B13 | 18.3 nM | – | –
14 | B14 | – | 3940 nM | Kd (c-Src SH2 domain): 6480 nM
15 | B15 | 30.2 nM | – | –
16 | B16 | – | 11700 nM | Kd (c-Src SH2 domain): 12300 nM
